Test results taken from FireProtDB (doi:10.1073/pnas.84.13.4441).

B1: Tryptophan synthase alpha chain, P0A877 (parent)
chain: MERYESLFAQLKERKEGAFVPFVTLGDPGIEQSLKIIDTLIEAGADALELGIPFSDPLADGPTIQNATLRAFAAGVTPAQCFEMLALIRQKHPTIPIGLLMYANLVFNKGIDEFYAQCEKVGVDSVLVADVPVEESAPFRQAALRHNVAPIFICPPNADDDLLRQIASYGRGYTYLLSRAGVTGAENRAALPLNHLVAKLKEYNAAPPLQGFGISAPDQVKAAIDAGAAGAISGSAIVKIIEQHINEPEKMLAALKVFVQPMKAATRS

Variants of: B1
Conditions: Escherichia coli (strain K12), 25 °C, GdnHCl, CD, Potassium phosphate 20 mM, reversible: yes, structure 1WQ5, whole UniProt chain shown

| Variant | ddG of mutation (higher = less stable) (pH 9) [kcal/mol] | unfolding free energy (pH 9) [kcal/mol] | ddG of mutation (higher = less stable) (pH 7) [kcal/mol] | unfolding free energy (pH 7) [kcal/mol] |
| --- | --- | --- | --- | --- |
| E49N | -0.27 | 18.2 |  |  |
| E49Y | -0.26 | 18.2 | 0.17 | 18 |
| E49T | 0.26 | 17.7 | 0.62 | 17.5 |
| E49V |  |  | -0.14 | 18.3 |
| E49S | -0.09 | 18.1 | 0.59 | 17.6 |
| E49W | 1.1 | 16.9 | 0.97 | 17.2 |
